Legend:
Experiment in all cases: FACS cell surface binding
HEK293 parental cells = test system: HEK293 parental cells; parameters: species or system human
Procedure, shortened: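 HEK293 cells stably transfected with HA-tagged human, cynomolgus or mouse PRLR (G418-selected), or parental HEK293, were stained with 10 μg/ml antibody for 30 min on ice. Binding was then detected with 10 μg/ml PE anti-human secondary for 30 min on ice, and MFI was expressed as fold over isotype control.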

[1] = molecular target: T1, human PRLR on HEK293/hPRLR cells (Homo sapiens, UniProt P16471)
T1 construct: HA; expressed in transfected cells; host or cells: HEK293
T1 sequence (P16471 25-622): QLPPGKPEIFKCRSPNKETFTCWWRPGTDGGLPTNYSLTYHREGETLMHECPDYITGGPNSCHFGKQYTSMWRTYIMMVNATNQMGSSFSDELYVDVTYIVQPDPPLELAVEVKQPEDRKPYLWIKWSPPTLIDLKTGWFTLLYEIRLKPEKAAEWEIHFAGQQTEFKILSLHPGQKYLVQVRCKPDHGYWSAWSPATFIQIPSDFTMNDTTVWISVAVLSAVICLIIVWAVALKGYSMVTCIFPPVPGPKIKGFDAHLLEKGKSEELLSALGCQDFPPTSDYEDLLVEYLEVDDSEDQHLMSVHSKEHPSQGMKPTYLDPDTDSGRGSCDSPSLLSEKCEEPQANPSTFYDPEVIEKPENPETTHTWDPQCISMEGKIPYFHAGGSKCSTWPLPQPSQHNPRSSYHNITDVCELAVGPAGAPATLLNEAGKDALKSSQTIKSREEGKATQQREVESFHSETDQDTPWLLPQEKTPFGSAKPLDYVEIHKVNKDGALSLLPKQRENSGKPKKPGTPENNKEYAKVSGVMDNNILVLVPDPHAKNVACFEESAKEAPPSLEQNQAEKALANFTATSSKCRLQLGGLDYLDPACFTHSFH
Procedure, shortened: (§1)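 Values are mean fluorescence intensity relative to an isotype control (background). Antibodies at 10 μg/ml were incubated on ice for 30 min with HEK293 lines stably overexpressing HA-tagged species PRLR or with parental cells. A PE-conjugated anti-human secondary was used for detection.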

[2] = molecular target: T2, monkey PRLR on HEK293/mfPRLR cells (Macaca fascicularis, UniProt A0A2K5WXK1)
T2 construct: HA; expressed in transfected cells; host or cells: HEK293
T2 sequence (A0A2K5WXK1 25-619): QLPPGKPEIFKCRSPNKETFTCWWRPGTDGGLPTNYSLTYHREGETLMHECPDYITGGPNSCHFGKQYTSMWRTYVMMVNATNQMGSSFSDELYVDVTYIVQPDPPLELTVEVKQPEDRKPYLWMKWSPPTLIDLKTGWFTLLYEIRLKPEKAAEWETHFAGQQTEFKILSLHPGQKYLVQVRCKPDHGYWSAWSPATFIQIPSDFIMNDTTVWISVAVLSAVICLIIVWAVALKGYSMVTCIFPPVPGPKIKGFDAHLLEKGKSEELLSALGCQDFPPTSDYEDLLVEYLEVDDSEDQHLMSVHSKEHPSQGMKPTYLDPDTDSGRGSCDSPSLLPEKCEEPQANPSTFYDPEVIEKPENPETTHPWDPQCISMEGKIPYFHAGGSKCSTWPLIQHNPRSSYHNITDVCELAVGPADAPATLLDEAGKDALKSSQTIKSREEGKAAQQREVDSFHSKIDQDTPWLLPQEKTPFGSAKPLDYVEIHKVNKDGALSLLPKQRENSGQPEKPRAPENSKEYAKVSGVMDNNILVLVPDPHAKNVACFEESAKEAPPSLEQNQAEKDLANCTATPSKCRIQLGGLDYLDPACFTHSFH
Procedure, shortened: as §1

[3] = molecular target: T3, mouse PRLR on HEK293/mPRLR cells (Mus musculus, UniProt Q08501)
T3 construct: HA; expressed in transfected cells; host or cells: HEK293
T3 sequence (Q08501 20-608): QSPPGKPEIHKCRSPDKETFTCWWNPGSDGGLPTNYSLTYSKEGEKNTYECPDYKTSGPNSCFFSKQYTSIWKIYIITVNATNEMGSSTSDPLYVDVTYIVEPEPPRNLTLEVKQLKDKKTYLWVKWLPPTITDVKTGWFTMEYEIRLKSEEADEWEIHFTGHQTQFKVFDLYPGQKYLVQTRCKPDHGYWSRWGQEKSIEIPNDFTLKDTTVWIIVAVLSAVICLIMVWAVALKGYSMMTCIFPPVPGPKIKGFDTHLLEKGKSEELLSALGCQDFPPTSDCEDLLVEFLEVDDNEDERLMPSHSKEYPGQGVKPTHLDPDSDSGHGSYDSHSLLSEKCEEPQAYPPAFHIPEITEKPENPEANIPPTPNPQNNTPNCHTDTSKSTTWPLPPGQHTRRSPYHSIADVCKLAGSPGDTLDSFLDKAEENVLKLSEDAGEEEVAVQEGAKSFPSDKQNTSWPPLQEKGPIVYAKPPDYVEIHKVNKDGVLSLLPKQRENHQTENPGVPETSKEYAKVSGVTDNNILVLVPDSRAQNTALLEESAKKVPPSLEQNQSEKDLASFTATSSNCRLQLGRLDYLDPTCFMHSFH
Procedure, shortened: as §1

[4] = molecular target: T4, native PRLR expressing T47D cells (Homo sapiens, UniProt P16471)
T4 construct: a native PRLR expressing cell line (T47D); endogenous in cells; host or cells: T47D
T4 sequence (P16471 25-622): T1 sequence (P16471 25-622)
Procedure, shortened: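 Flow cytometry on native PRLR-expressing T47D cells, alongside PRLR-overexpressing and parental HEK293 lines. Cells (1×10^5) incubated with antibody at 10 μg/ml, 30 min on ice, then PE anti-human secondary; binding reported as MFI fold over isotype control.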

B1: H1H6774P: fully human anti-PRLR antibody, human IgG1 Fc; HCVR/LCVR SEQ ID NOs 34/42 (antibody, V domains shown)
VH: EVQLVESGGGLAQPGGSLRLSCVASGFTFSTYWMSWVRQAPGKGLDWVGNIKQDGSEQNYVDSVRGRFTISRDNAKNSLFLQMNSLRAEDTGVYYCATLLTKGDYWGQGTLVTVSS
VL: DIQMTQSPSSLSASVGDSVTITCRASQDISNYLDWFQQKPGKAPKSLIYAASILQGGVPSRFSGSGYGTDFTLTISSLQPEDFATYYCRQYKTYPFTFGPGTKVDIK
FACS Cell Binding (HEK293 parental cells): 1 Fold Above Background | FACS Cell Binding [1]: 1 Fold Above Background | FACS Cell Binding [2]: 29 Fold Above Background | FACS Cell Binding [3]: 1 Fold Above Background | FACS Cell Binding [4]: 39 Fold Above Background

B2: H1H6975N: anti-PRLR antibody, human IgG1 Fc form of H2M6975N of Table 1; HCVR/LCVR SEQ ID NOs 370/378 (antibody, V domains shown)
VH: EVHLVESGGGLVQPGGSLRLSCAASGFTFSSYEMNWVRQTPGKGLEWISHISSRSVIIYYADSVKGRFTISRDNAKNSLFLQMNSLRAEDTAVYFCAGITIFGIPEYWGQGTLVTVSS
VL: EIVLTQSPATLSLSPGERATLSCRASQSVSSYFAWYQQKPGQAPRLLIYDASSRATGIPTRFSGSGSGTDFTLTISSLEPEDFAVYYCQQRSSWPITFGQGTRLEIK
modifications: human IgG1 Fc
FACS Cell Binding (HEK293 parental cells): 1 Fold Above Background | FACS Cell Binding [1]: 38 Fold Above Background | FACS Cell Binding [2]: 29 Fold Above Background | FACS Cell Binding [3]: 1 Fold Above Background | FACS Cell Binding [4]: 46 Fold Above Background

B3: H1H6765P: fully human anti-PRLR antibody, human IgG1 Fc; HCVR/LCVR SEQ ID NOs 18/26 (antibody, V domains shown)
VH: EVQLVESGGGVVRPGGSLRLSCVGSGFSFDDHGMNWVRQGPGKGLEWVSGFNWNGGSTNYAESVKGRFTISRDNARNSLFLQMNSLRAEDTALYYCVRGRSGWFNDAFDVWGPGTMVTVSS
VL: EIVLTQSPGTLSLSPGERATLSCRASQTINSNYLAWYRQKPGQTPRLLIYGTSSRATGIPDRFSGSGSGTDFSLTISRLEPEDFAVFYCQQYAGLPTFGPGTKVDIK
FACS Cell Binding (HEK293 parental cells): 2 Fold Above Background | FACS Cell Binding [1]: 38 Fold Above Background | FACS Cell Binding [2]: 27 Fold Above Background | FACS Cell Binding [3]: 1 Fold Above Background | FACS Cell Binding [4]: 40 Fold Above Background

B4: H1H6958N2: anti-PRLR antibody, receptor blocking, human IgG1 Fc form of H2M6958N2 of Table 1; HCVR/LCVR SEQ ID NOs 290/298 (antibody, V domains shown)
VH: QVQLVESGGGVVQPGRSLRLSCGASGFTFRNYGMQWVRQGPGKGLEWVTLISFDGNDKYYADSVKGRFTISRDNSKNTLFLQMNSLRTEDTAVYYCARGGDFDYWGQGTLVTVSS
VL: DIQMTQSPSSLSASVGDRVTITCRASQDIRKDLGWYQQKPGKAPKRLIYAASSLHSGVPSRFSGSGSGTEFTLTISSLQPEDFATYYCLQHNSYPMYTFGQGTKLEIK
FACS Cell Binding (HEK293 parental cells): 1 Fold Above Background | FACS Cell Binding [1]: 35 Fold Above Background | FACS Cell Binding [2]: 30 Fold Above Background | FACS Cell Binding [3]: 1 Fold Above Background | FACS Cell Binding [4]: 37 Fold Above Background
